Reference: the nanobody polyreactivity screen of Harvey et al. (2022)

Test: yeast display, Sf9 membrane polyspecificity reagent, FACS + sequencing; frameworks hold sequencing errors
Procedure, shortened: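 A synthetic nanobody library was expressed on Saccharomyces cerevisiae BJ5465 by galactose induction for 36–48 hours. The library was stained for 1 hour at 4 °C with 10% biotinylated, detergent-solubilized Sf9 membrane reagent and enriched with streptavidin microbeads before FACS. Low and high (top ~1%) gates were set on anti-HA fluorescence for expression and streptavidin fluorescence for reagent binding, and each polyreactivity label reflects the gate of origin.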

Sequence | polyreactivity (PSR sort gate)
QVQLVESGGGLVQAGGSLRLSCAASGRIFAYYAMGWYRQAPGTERELVAAISRSGVSTYYADSVKGRFTISRDNAKNTVYLQMNSLKPEDTAVYYCAAERYWTYYSGFVYGGDNYWGQGTQVTVSS | low polyreactivity
QVQLVESGGGLVQAGGSLRLSCAASGRIFAYYTMGWYRQAPGKERELVAAITKRGGSTYYADSVKGRFTISRDNAKNTVYLQMNSLKPEDTAVYYCAADPHRYRYRSPHDYWGQGTQVTVSS | high polyreactivity
QVQLVESGGGLVQAGGSLRLSCAASGRIFAYYTMGWYRQAPGKERELVAAITSRGGSTYYADSVKGRFTISRDNAKKTVYLQMNSLKPEDTAVYYCAALRPSNVDYWGQGTQVTVSS | high polyreactivity
QVQLVESGGGLVQAGGSLRLSCAASGRIFAYYVMGWYRQAPGKERELVASISSGGGTYYADSVKGRFTISRDNAKNTVYLQMNSLKPEDTAVYYCAARWRRYVYPDGHLFWYDYWGQGTQVTVSS | high polyreactivity
QVQLVESGGGLVQAGGSLRLSCAASGRIFDANAMGWYRQAPGKERELVAAITVSGGSTYYADSVKGRFTISRDNAKNTVYLEMNSLKPEDTAVYYCAKSLVPWWYKVDYDYWGQGTQVTVSS | low polyreactivity
QVQLVESGGGLVQAGGSLRLSCAASGRIFDANVMGGYRQAPGKERELVAAISSGGRTKYADSVKGRFTISRDNAKNTVYLQMNSLKPEDTAVYYCAKKHSPLYDYWGQGTQVTVSS | low polyreactivity
QVQLVESGGGLVQAGGSLRLSCAASGRIFDDNAMGWYRQAPGKERELVASITVSTGSTYYADSVKGRFTISRDNAKNTVYLQMNSLKPEDTAVSYCAAPYITPYGTYVFSSDYWGQGTQVTVSS | low polyreactivity
QVQLVESGGGLVQAGGSLRLSCAASGRIFDFYAMGWYSQAPGKERELVAAIASSVGNTYYADSVTGRFTISRDNAKNTVSLQMISLKPEDTAVYYCADYSYVRSSYEVEYDYWGQGTQVTVSS | low polyreactivity
QVQLVESGGGLVQAGGSLRLSCAASGRIFDGNAMGWYRQAPWKERELVAAINRSGGRTYYADSVKGRFTISRDNAKNTVYLQMNSLKPEDTAVYYCATPYAGGTPADPGYDYWGQGTQVTVSS | high polyreactivity
QVQLVESGGGLVQAGGSLRLSCAASGRIFDGYAMGWYRQAPGKERELVAAINRSGSSTYYADSVKGRFTISRDNAKNTVYLQMNSLKPEDTAVYYCNARSGNRYGPRYDYWGQGTQVTVSS | high polyreactivity
QVQLVESGGGLVQAGGSLRLSCAASGRIFDINAMGWYRQAPGKESELVAAISRGGSTYYADSVKGRFTISRDNAKHTVDLQMNSLKPQDTAVYYCNKYRYRGSTVFDGYDYWGQGTQVTVSS | high polyreactivity
QVQLVESGGGLVQAGGSLRLSCAASGRIFDIYAMGWYRQAPGKERELVAAITRGGSTYADSVKGRFTISRDNAKNTVYLQMNSLKPEDTAVYYCAARPRLPRQIGGDGHLDDYWGQGTQVTVSS | high polyreactivity
QVQLVESGGGLVQAGGSLRLSCAASGRIFDIYAMGWYRQAPGKERELVAAITSGGSTYYADSVKGRFTNSRDNAKNTVYFQMNILKPEYTAVYYCAADSVLLKDTGYDYWGKGTQVTVSS | low polyreactivity
QVQLVESGGGLVQAGGSLRLSCAASGRIFDIYTMGWYRQAPGKERELVASITKRGGSTYYADSVKGRFTISRDNAKNTVYLQMNSLKPEDTAVYYCNVAGKQKPYYVTTRLDYWGQGTQVTVSS | high polyreactivity
QVQLVESGGGLVQAGGSLRLSCAASGRIFDKNAMGWYRQAPGKERELVAAISGGGRTYYADSVKGRFTISRDNAKNTVYLLMNSLKPEDTAVYYCNVPYYYTRGSYGYWGQGTQVTVSS | low polyreactivity
QVQLVESGGGLVQAGGSLRLSCAASGRIFDKYAMGWYRQAPGKERYLVAAIDWSGGSTYYADSVKGRFTISRDNAKNTVYLQMNRLKPEDNAVYYCAAYWYYEDGQSEARLYGYDYWGQGTQVTVSS | low polyreactivity
QVQLVESGGGLVQAGGSLRLSCAASGRIFDLNAMGWYSQAPGKERELVAAITTNDGDTYYADSVKGRFTISRDTAKNTVYLQMNSLKPEDTAVYYCAAVSGSTSEYEYWGQGTEVTVSS | low polyreactivity
QVQLVESGGGLVQAGGSLRLSCAASGRIFDLNTMGWYRQAPGKERELVAAISSGGSTYYADSVNGRFTISRDNAKNTVYIQMNSLKPEDTAVYYCADAKIRGYLIRMYWGQRTQVTVSS | low polyreactivity
QVQLVESGGGLVQAGGSLRLSCAASGRIFDNNAMGWYIQAPGKERELVAAIDWPGGSTDYADSVKGRFTISRDNAKNTVYLQMNSLIPEDTAVYYCVAGNVPYWHGNSYDYWGQGTQVTVSS | low polyreactivity
QVQLVESGGGLVQAGGSLRLSCAASGRIFDNYAMGWYRQAPGKDREWVAAISSRGRSTYYADSVKGRFTISRDNAKNTVYLQMNSLKPEDTAVYYCAKDLGYRGRYNYWGQGTQVTVSS | low polyreactivity
QVQLVESGGGLVQAGGSLRLSCAASGRIFDQNAMGWYRQAPGKERELVAAITWSGGSTNYADSVKGRFTISRDNAKNTVYLQMNSLKPEDTAVYYCATDGKPSFYSFDYWGQGTQVTVSS | low polyreactivity
QVQLVESGGGLVQAGGSLRLSCAASGRIFDRNAMGWYRQAPGKERELVARIDPGDDTNYADSVKGRFTISRDNAKNTVYLQMNSLKPEDTAVYYCAADGVVVVAADMYYWGQGTQVTVSS | low polyreactivity
QVQLVESGGGLVQAGGSLRLSCAASGRIFDRYAMGWYRQAPGKERELVAAISDRGGSTYYADSVKGRFTISRDNAKNTVYLQMNSLKPEDTAVFYCAKGPSGVRTYREYDSWGQGTQVTVSS | low polyreactivity
QVQLVESGGGLVQAGGSLRLSCAASGRIFDSNAMGWYRQAPGKERELVAAITYSGGGTFYADSVKGRFTISRDNAKNTVYLQMNRLKPEDTAVYYCNAGYFTEYNSWGQGTQVTVSS | high polyreactivity
QVQLVESGGGLVQAGGSLRLSCAASGRIFDTNVMGWYRQAPGKERELVAAISSGGSTYYADSVKGRFTISRDNAKNTVYLQMNSLKPEDTAVYFCAAESRTSRARRYYWGQGTQVTVSS | high polyreactivity
QVQLVESGGGLVQAGGSLRLSCAASGRIFDVNAMGWYRQAPGKERELVAAITYSDGSTYYADSVTGRFTISRDNAKNTVYLQMNSLKPEDTAVDYCAATQEPVTPQPYGYWGQGTQVTVSS | low polyreactivity
QVQLVESGGGLVQAGGSLRLSCAASGRIFDVYAMGWYRQAPGKERELVAGITYSGGSTYYADSVKGRFTISRDNAKNTVYVQMNSLKPEDTAVYYCAALNGDPYVQLLEDYWGQGTQVTVSS | low polyreactivity
QVQLVESGGGLVQAGGSLRLSCAASGRIFDYNGMGWYRQAPGKERELVAAIRLSDGSTYYADSVKGRFTISRDNAKNTVYLQMNSQKPEDTAVYYCADVGKNRSWYDYWGQGSQVTVSS | high polyreactivity
QVQLVESGGGLVQAGGSLRLSCAASGRIFDYNTMGWYRQAPGKEREFVAAITSSGGRTYYADSVKGRFTISRDNAKNTVYLQMNSLKPEDTAVYYCAARLNIYYRRMGYWGQGTQVTVSS | high polyreactivity
QVQLVESGGGLVQAGGSLRLSCAASGRIFDYYAMGWYRQAPGKERELVAAISSSVGNTYYADSVKGRFTISRDNAKNTVYLQMNSLKPEDTAVYYFADYSYVRSSYEVEDDYWGQGTQVTVSS | low polyreactivity
